# Laboratory results: patent US20100041612A1 (published 2010)
# Ends that are not written are not given here.
# How the values were obtained:
# [1] = molecular target: hyperactive human GLP-1 receptor variant (human); test: cell-based or functional assay
# [2] = molecular target: wild-type human GLP-1 receptor (human, UniProt P43220 24-463); test: cell-based or functional assay
Binder,"cAMP production (radioimmunoassay), EC50 [1] [µM]","cAMP production, fold higher potency against GLP-1 (7-20) amide -bpa at the hyperactive receptor [1] [fold]","cAMP production (radioimmunoassay), EC50 [2] [µM]","cAMP production, fold potency increase against GLP-1 (7-20) amide without biphenylalanine [2] [fold]","cAMP production, fold potency increase against the same peptide at the wild type receptor [1] [fold]","cAMP production (radioimmunoassay), half maximal excitatory concentration (EC50) [2] [µM]"
HAEGTFTSDVSSYL-biphenylalanine (not fully specified) [GLP-1 (7-20) carboxy-terminal tethered with biphenylalanine],2,10,11,22,–,–
HAEGTFTSDVSSYL-NH2 [GLP-1 (7-20) amide],24,–,–,–,10,240
